Data from publication PMC8477213.
Where two headings read alike, the source gives them in different places.

T1: Tnp26 WT (IS26 (bacterial insertion sequence; …, UniProt A0A2K9V0L7 1-234, G117R)
T1 sequence: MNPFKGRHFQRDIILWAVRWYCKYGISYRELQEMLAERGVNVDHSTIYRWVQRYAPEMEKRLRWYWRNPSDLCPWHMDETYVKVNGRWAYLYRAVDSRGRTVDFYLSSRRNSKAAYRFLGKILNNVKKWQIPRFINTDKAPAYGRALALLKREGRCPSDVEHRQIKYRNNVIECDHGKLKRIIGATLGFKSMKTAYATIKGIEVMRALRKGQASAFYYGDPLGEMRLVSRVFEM

T2: Tnp26 F9A (IS26 (bacterial insertion sequence; …, UniProt A0A2K9V0L7 1-234, F9A;G117R)
T2 sequence: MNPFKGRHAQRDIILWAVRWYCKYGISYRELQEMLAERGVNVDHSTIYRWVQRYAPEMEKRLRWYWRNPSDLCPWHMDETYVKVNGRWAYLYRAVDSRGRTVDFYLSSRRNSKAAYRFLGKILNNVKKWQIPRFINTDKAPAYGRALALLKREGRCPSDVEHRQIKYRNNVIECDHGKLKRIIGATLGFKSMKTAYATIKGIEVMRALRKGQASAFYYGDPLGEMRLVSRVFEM

T3: Tnp26 W50A (IS26 (bacterial insertion sequence; …, UniProt A0A2K9V0L7 1-234, W50A;G117R)
T3 sequence: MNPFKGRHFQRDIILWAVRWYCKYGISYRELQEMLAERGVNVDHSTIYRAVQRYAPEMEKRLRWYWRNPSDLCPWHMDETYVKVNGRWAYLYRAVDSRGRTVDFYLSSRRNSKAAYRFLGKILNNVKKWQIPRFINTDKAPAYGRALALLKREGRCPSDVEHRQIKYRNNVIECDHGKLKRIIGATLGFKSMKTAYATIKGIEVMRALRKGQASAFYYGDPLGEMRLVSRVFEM

T4: Tnp26 R49A (IS26 (bacterial insertion sequence; …, UniProt A0A2K9V0L7 1-234, R49A;G117R)
T4 sequence: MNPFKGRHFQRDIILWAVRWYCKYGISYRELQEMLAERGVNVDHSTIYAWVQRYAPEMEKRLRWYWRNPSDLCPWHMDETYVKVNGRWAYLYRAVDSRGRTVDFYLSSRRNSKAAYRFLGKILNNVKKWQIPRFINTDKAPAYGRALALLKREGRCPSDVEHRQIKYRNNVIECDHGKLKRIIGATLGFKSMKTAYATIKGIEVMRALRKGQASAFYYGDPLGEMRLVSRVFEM

T5: Tnp26 F4A (IS26 (bacterial insertion sequence; …, UniProt A0A2K9V0L7 1-234, F4A;G117R)
T5 sequence: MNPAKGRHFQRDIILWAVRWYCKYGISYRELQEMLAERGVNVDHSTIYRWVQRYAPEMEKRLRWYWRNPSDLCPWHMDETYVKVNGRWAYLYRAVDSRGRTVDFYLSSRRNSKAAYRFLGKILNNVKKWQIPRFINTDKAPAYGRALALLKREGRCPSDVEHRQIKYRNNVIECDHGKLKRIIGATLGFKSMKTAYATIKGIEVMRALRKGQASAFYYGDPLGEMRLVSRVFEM

T6: Tnp26 1-56 (IS26 (bacterial insertion sequence; …, UniProt A0A2K9V0L7 1-56)
T6 sequence: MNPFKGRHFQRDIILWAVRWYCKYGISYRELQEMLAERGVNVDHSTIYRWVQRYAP

T7: Tnp26 Y54A (IS26 (bacterial insertion sequence; …, UniProt A0A2K9V0L7 1-234, Y54A;G117R)
T7 sequence: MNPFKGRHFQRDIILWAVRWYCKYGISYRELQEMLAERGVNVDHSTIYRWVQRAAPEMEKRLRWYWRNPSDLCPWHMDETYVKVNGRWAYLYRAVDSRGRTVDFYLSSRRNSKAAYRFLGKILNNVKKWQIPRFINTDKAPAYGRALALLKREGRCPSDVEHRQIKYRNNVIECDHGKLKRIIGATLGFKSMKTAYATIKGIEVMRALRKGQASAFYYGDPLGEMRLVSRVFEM

B1: TIRR 50mer (dsDNA)
DNA 1: TCAGATCGATGGCACTGTTGCAAAGTTAGCGATGAGGCAGCCTTTTGTCT
DNA 2: AGACAAAAGGCTGCCTCATCGCTAACTTTGCAACAGTGCCATCGATCTGA
B2: Scrambled TIRR (dsDNA)
DNA 1: TTCGTGACTACATCGATCTAGGCTAGCTAGTCAGCTGATCGACTAGCGAT
DNA 2: ATCGCTAGTCGATCAGCTGACTAGCTAGCCTAGATCGATGTAGTCACGAA
B3: TIRR 25mer (dsDNA)
DNA 1: TCAGATCGATGGCACTGTTGCAAAG
DNA 2: CTTTGCAACAGTGCCATCGATCTGA
B4: TIRR 7G>T (dsDNA)
DNA 1: TCAGATCGATGGCACTTTTGCAAAGTTAGCGATGAGGCAGCCTTTTGTCT
DNA 2: AGACAAAAGGCTGCCTCATCGCTAACTTTGCAAAAGTGCCATCGATCTGA
B5: TIRR 1G>T 2G>T (dsDNA)
DNA 1: TCAGATCGATTTCACTGTTGCAAAGTTAGCGATGAGGCAGCCTTTTGTCT
DNA 2: AGACAAAAGGCTGCCTCATCGCTAACTTTGCAACAGTGAAATCGATCTGA
B6: TIRL 50mer (dsDNA)
DNA 1: TCAGATCGATGGCACTGTTGCAAATAGTCGGTGGTGATAAACTTATCATC
DNA 2: GATGATAAGTTTATCACCACCGACTATTTGCAACAGTGCCATCGATCTGA
B7: TIRR 10G>T (dsDNA)
DNA 1: TCAGATCGATGGCACTGTTTCAAAGTTAGCGATGAGGCAGCCTTTTGTCT
DNA 2: AGACAAAAGGCTGCCTCATCGCTAACTTTGAAACAGTGCCATCGATCTGA

What was measured:
Tnp26 WT [1] = target: T1, Tnp26 WT; assay: MST
Tnp26 F9A = target: T2, Tnp26 F9A; assay: EMSA
Tnp26 W50A = target: T3, Tnp26 W50A; assay: EMSA
Tnp26 R49A = target: T4, Tnp26 R49A; assay: EMSA
Tnp26 F4A = target: T5, Tnp26 F4A; assay: EMSA
Tnp26 1-56 [2] = target: T6, Tnp26 1-56; assay: EMSA
Tnp26 WT [3] = target: T1, Tnp26 WT; assay: EMSA
Tnp26 WT [4] = target: T1, Tnp26 WT; assay: EMSA; remark: listed apart in the source
Tnp26 1-56 [5] = target: T6, Tnp26 1-56; assay: EMSA; remark: listed apart in the source
Tnp26 Y54A = target: T7, Tnp26 Y54A; assay: MST

Row | Binder | Kd (Tnp26 WT [1]) [µM] | binding result (Tnp26 F9A) | binding result (Tnp26 W50A) | binding result (Tnp26 R49A) | binding result (Tnp26 F4A) | other results
1 | B1 | 0.394 | no binding | no binding | no binding | no binding | 
2 | B2 |  | no binding | no binding | no binding | no binding | binding result (Tnp26 1-56 [2]): no binding; binding result (Tnp26 WT [3]): no binding
3 | B3 |  |  |  |  |  | binding result (Tnp26 WT [4]): no binding
4 | B4 |  |  |  |  |  | binding result (Tnp26 1-56 [5]): no binding; binding result (Tnp26 WT [3]): no binding
5 | B5 | 0.24 |  |  |  |  | 
6 | B6 |  | no binding | no binding | no binding | no binding | Kd (Tnp26 Y54A): 0.802 µM
7 | B7 | 0.872 |  |  |  |  | 
